Experimental data published in patent US20230002480A1.

What was measured:
Test in all cases: cell-based or functional assay
[1] = target: HIV-1 Env of pseudovirus ZM135M.PL10a (HIV-1)
[2] = target: HIV-1 Env of pseudovirus ZM233M.PB6 (HIV-1)
[3] = target: HIV-1 Env of pseudovirus 6952.v1.c20 (HIV-1)
[4] = target: HIV-1 Env of pseudovirus 0815.v3.c3 (HIV-1)
[5] = target: HIV-1 Env of pseudovirus 3365.v2.c2 (HIV-1)
[6] = target: HIV-1 Env of pseudovirus R2184.c04 (HIV-1)
[7] = target: HIV-1 Env of pseudovirus 6240_08_TA5_4622 (HIV-1)
[8] = target: HIV-1 Env of pseudovirus 0260.v5.c36 (HIV-1)
[9] = target: HIV-1 Env of pseudovirus REJO4541.67 (HIV-1)
[10] = target: HIV-1 Env of pseudovirus P1981_C5_3 (HIV-1)
[11] = target: HIV-1 Env of pseudovirus 3415.v1.c1 (HIV-1)
[12] = target: HIV-1 Env of pseudovirus X1193_c1 (HIV-1)
[13] = target: HIV-1 Env of pseudovirus Du422.1 (HIV-1)
[14] = target: HIV-1 Env of pseudovirus Ce0393_C3 (HIV-1)
[15] = target: HIV-1 Env of pseudovirus Q842.d12 (HIV-1)
[16] = target: HIV-1 Env of pseudovirus Ce0682_E4 (HIV-1)
[17] = target: HIV-1 Env of pseudovirus CAP210.2.00.E8 (HIV-1)
[18] = target: HIV-1 Env of pseudovirus CNE21 (HIV-1)
[19] = target: HIV-1 Env of pseudovirus C4118.c09 (HIV-1)
[20] = target: HIV-1 Env of pseudovirus 89-F1_2_25 (HIV-1)
[21] = target: HIV-1 Env of pseudovirus BF1266.431a (HIV-1)
[22] = target: HIV-1 Env of pseudovirus 6041.v3.c23 (HIV-1)
[23] = target: HIV-1 Env of pseudovirus Q23.17 (HIV-1)
[24] = target: HIV-1 Env of pseudovirus X1254_c3 (HIV-1)
[25] = target: HIV-1 Env of pseudovirus 246F C1G (HIV-1)
[26] = target: HIV-1 Env of pseudovirus Ce1086_B2 (HIV-1)
[27] = target: HIV-1 Env of pseudovirus QH0692.42 (HIV-1)
[28] = target: HIV-1 Env of pseudovirus CAAN5342.A2 (HIV-1)
[29] = target: HIV-1 Env of pseudovirus Ce703010054_2A2 (HIV-1)
[30] = target: HIV-1 Env of pseudovirus PVO.4 (HIV-1)
[31] = target: HIV-1 Env of pseudovirus Ce704809221_1B3 (HIV-1)
[32] = target: HIV-1 Env of pseudovirus CNE53 (HIV-1)
[33] = target: HIV-1 Env of pseudovirus BJOX010000.06.2 (HIV-1)

B1: N49P22 (antibody, V domains shown)
V domain 1: HIQLLQSGPQVKKSGDTVRISCETSGYNFVDSRIHWVRQTPEKRLRWMGWINPLQGGVNYAPEFQGRIRMTRDTFIDTVYVDLSGLTPADTAYYYCARGIDGKSYPFHFWGHGTRVTVFS
V domain 2: RFALTQPASVSGSPGQTITITCAGGSVSWFHFPPGKTPRLIIYESSKRPSGVSPRFSGSQSGSTASLIISGLQSDDEGTYFCSILEFFGRGTLVTVLS
With B1 as the binder, how does the IC50 [1] read?
Its IC50 is greater than 50 µg/mL.

What about the IC80 [1] of the same binder?
The IC80 was greater than 50 µg/mL.

What about the MPI [1] of the same binder?
The MPI was 27.

And the IC50 [2]?
Its IC50 is greater than 50 µg/mL.

And the IC80 [2]?
Its IC80 is greater than 50 µg/mL.

What about the MPI [2] of the same binder?
Its MPI is 2.

And the IC50 [3]?
Its IC50 is 33.2 µg/mL.

What about the IC80 [3] of the same binder?
The IC80 was greater than 50 µg/mL.

And the MPI [3]?
Its MPI is 56.

And the IC50 [4]?
The IC50 was 0.161 µg/mL.

And the IC80 [4]?
The IC80 was 1.08 µg/mL.

What about the MPI [4] of the same binder?
Its MPI is 98.

And the IC50 [5]?
The IC50 was 0.254 µg/mL.

And the IC80 [5]?
Its IC80 is 0.857 µg/mL.

What about the MPI [5] of the same binder?
Its MPI is 98.

And the IC50 [6]?
Its IC50 is 0.077 µg/mL.

And the IC80 [6]?
The IC80 was 0.342 µg/mL.

What about the MPI [6] of the same binder?
The MPI was 100.

What about the IC50 [7] of the same binder?
Its IC50 is 2.33 µg/mL.

What about the IC80 [7] of the same binder?
The IC80 was 9.76 µg/mL.

What about the MPI [7] of the same binder?
The MPI was 93.

And the IC50 [8]?
Its IC50 is 1.67 µg/mL.

What about the IC80 [8] of the same binder?
Its IC80 is 14.4 µg/mL.

What about the MPI [8] of the same binder?
Its MPI is 93.

And the IC50 [9]?
The IC50 was 0.792 µg/mL.

And the IC80 [9]?
Its IC80 is 12.1 µg/mL.

And the MPI [9]?
Its MPI is 84.

And the IC50 [10]?
The IC50 was greater than 50 µg/mL.

And the IC80 [10]?
Its IC80 is greater than 50 µg/mL.

And the MPI [10]?
Its MPI is 48.

What about the IC50 [11] of the same binder?
The IC50 was 0.198 µg/mL.

What about the IC80 [11] of the same binder?
Its IC80 is 1.41 µg/mL.

What about the MPI [11] of the same binder?
The MPI was 96.

What about the IC50 [12] of the same binder?
The IC50 was 3.49 µg/mL.

What about the IC80 [12] of the same binder?
The IC80 was 28.5 µg/mL.

And the MPI [12]?
The MPI was 85.

What about the IC50 [13] of the same binder?
Its IC50 is greater than 50 µg/mL.

And the IC80 [13]?
The IC80 was greater than 50 µg/mL.

What about the MPI [13] of the same binder?
Its MPI is 4.

What about the IC50 [14] of the same binder?
The IC50 was greater than 50 µg/mL.

And the IC80 [14]?
Its IC80 is greater than 50 µg/mL.

And the MPI [14]?
The MPI was 12.

What about the IC50 [15] of the same binder?
Its IC50 is 0.079 µg/mL.

And the IC80 [15]?
The IC80 was 0.359 µg/mL.

What about the MPI [15] of the same binder?
The MPI was 100.

And the IC50 [16]?
The IC50 was 1.13 µg/mL.

What about the IC80 [16] of the same binder?
Its IC80 is greater than 50 µg/mL.

What about the MPI [16] of the same binder?
Its MPI is 75.

And the IC50 [17]?
Its IC50 is greater than 50 µg/mL.

And the IC80 [17]?
The IC80 was greater than 50 µg/mL.

What about the MPI [17] of the same binder?
The MPI was 6.

What about the IC50 [18] of the same binder?
The IC50 was greater than 50 µg/mL.

And the IC80 [18]?
The IC80 was greater than 50 µg/mL.

And the MPI [18]?
The MPI was 0.

And the IC50 [19]?
The IC50 was 1.82 µg/mL.

What about the IC80 [19] of the same binder?
The IC80 was 26.6 µg/mL.

What about the MPI [19] of the same binder?
Its MPI is 93.

And the IC50 [20]?
Its IC50 is greater than 50 µg/mL.

And the IC80 [20]?
The IC80 was greater than 50 µg/mL.

What about the MPI [20] of the same binder?
Its MPI is 10.

And the IC50 [21]?
The IC50 was greater than 50 µg/mL.

And the IC80 [21]?
The IC80 was greater than 50 µg/mL.

And the MPI [21]?
Its MPI is 0.

And the IC50 [22]?
Its IC50 is 7.55 µg/mL.

What about the IC80 [22] of the same binder?
Its IC80 is greater than 50 µg/mL.

What about the MPI [22] of the same binder?
Its MPI is 66.

And the IC50 [23]?
Its IC50 is 0.321 µg/mL.

And the IC80 [23]?
The IC80 was 2.4 µg/mL.

What about the MPI [23] of the same binder?
The MPI was 96.

And the IC50 [24]?
Its IC50 is 3.06 µg/mL.

What about the IC80 [24] of the same binder?
The IC80 was 29.8 µg/mL.

What about the MPI [24] of the same binder?
Its MPI is 84.

What about the IC50 [25] of the same binder?
The IC50 was greater than 50 µg/mL.

And the IC80 [25]?
The IC80 was greater than 50 µg/mL.

And the MPI [25]?
The MPI was 10.

What about the IC50 [26] of the same binder?
Its IC50 is greater than 50 µg/mL.

What about the IC80 [26] of the same binder?
Its IC80 is greater than 50 µg/mL.

What about the MPI [26] of the same binder?
Its MPI is 0.

And the IC50 [27]?
The IC50 was 0.592 µg/mL.

What about the IC80 [27] of the same binder?
The IC80 was 2.02 µg/mL.

What about the MPI [27] of the same binder?
Its MPI is 100.

And the IC50 [28]?
The IC50 was 0.425 µg/mL.

What about the IC80 [28] of the same binder?
The IC80 was 1.88 µg/mL.

And the MPI [28]?
Its MPI is 99.

And the IC50 [29]?
The IC50 was greater than 50 µg/mL.

What about the IC80 [29] of the same binder?
The IC80 was greater than 50 µg/mL.

What about the MPI [29] of the same binder?
Its MPI is 0.

And the IC50 [30]?
Its IC50 is 0.433 µg/mL.

And the IC80 [30]?
The IC80 was 1.49 µg/mL.

And the MPI [30]?
The MPI was 100.

And the IC50 [31]?
Its IC50 is 15.8 µg/mL.

What about the IC80 [31] of the same binder?
Its IC80 is greater than 50 µg/mL.

And the MPI [31]?
Its MPI is 60.

And the IC50 [32]?
The IC50 was 0.779 µg/mL.

And the IC80 [32]?
The IC80 was 5.11 µg/mL.

And the MPI [32]?
Its MPI is 93.

What about the IC50 [33] of the same binder?
The IC50 was greater than 50 µg/mL.

And the IC80 [33]?
The IC80 was greater than 50 µg/mL.

What about the MPI [33] of the same binder?
Its MPI is 0.
